The Human Domainome abundance scans (Beltran et al. 2025)
± gives the uncertainty stated by the source.

B1: Protein S100-G, residues 1 to 79; numbered along this chain, P02633 (parent)
chain: MSAKKSPEELKGIFEKYAAKEGDPNQLSKEELKLLLQTEFPSLLKGPSTLDELFEELDKNGDGEVSFEEFQVLVKKISQ
B2: Nuclear receptor subfamily 1 group D member 2, residues 103 to 171; numbered along this chain, Q14995 (parent)
chain: CKVCGDVASGFHYGVHACEGCKGFFRRSIQQNIQYKKCLKNENCSIMRMNRNRCQQCRFKKCLSVGMSR

Variants of: B1
Experiment: abundance fitness (aPCA) (normalised: wild type 0, dead -1); higher = more abundant; growth selection in yeast, the domain comes from the species named
Settings: Bos taurus

DSAKKSPEELKGIFEKYAAKEGDPNQLSKEELKLLLQTEFPSLLKGPSTLDELFEELDKNGDGEVSFEEFQVLVKKISQ [M1D] and ASAKKSPEELKGIFEKYAAKEGDPNQLSKEELKLLLQTEFPSLLKGPSTLDELFEELDKNGDGEVSFEEFQVLVKKISQ [M1A] are within error of each other in abundance fitness: -0.392 ± 0.13 for the first, -0.572 ± 0.1 for the second.

Going from ISAKKSPEELKGIFEKYAAKEGDPNQLSKEELKLLLQTEFPSLLKGPSTLDELFEELDKNGDGEVSFEEFQVLVKKISQ [M1I] to KSAKKSPEELKGIFEKYAAKEGDPNQLSKEELKLLLQTEFPSLLKGPSTLDELFEELDKNGDGEVSFEEFQVLVKKISQ [M1K], the abundance fitness falls from 0.027 ± 0.094 to -0.245 ± 0.099.

First: ESAKKSPEELKGIFEKYAAKEGDPNQLSKEELKLLLQTEFPSLLKGPSTLDELFEELDKNGDGEVSFEEFQVLVKKISQ [M1E]
Second: HSAKKSPEELKGIFEKYAAKEGDPNQLSKEELKLLLQTEFPSLLKGPSTLDELFEELDKNGDGEVSFEEFQVLVKKISQ [M1H]
The abundance fitness of the first is higher: -0.552 ± 0.1 for the first, -1.42 ± 0.33 for the second.

GSAKKSPEELKGIFEKYAAKEGDPNQLSKEELKLLLQTEFPSLLKGPSTLDELFEELDKNGDGEVSFEEFQVLVKKISQ [M1G] and FSAKKSPEELKGIFEKYAAKEGDPNQLSKEELKLLLQTEFPSLLKGPSTLDELFEELDKNGDGEVSFEEFQVLVKKISQ [M1F] are within error of each other in abundance fitness: -0.267 ± 0.1 for the first, -0.193 ± 0.11 for the second.

LSAKKSPEELKGIFEKYAAKEGDPNQLSKEELKLLLQTEFPSLLKGPSTLDELFEELDKNGDGEVSFEEFQVLVKKISQ [M1L] gave an abundance fitness of -0.378 ± 0.085.

Variants of: B2
Experiment: as above
Settings: Homo sapiens

Going from CKVCGDVASGFHYGVHACEGCKGFFRRSIQQNIQYKKCLKNENCSIMRMNRNRCQQCRFKKCLSVGMQR [S68Q] to CKVCGDVASGFHYGVHACEGCKGFFRRSIQQNIQYKKCLKNENCSIMRMNRNRCQQCRFKKCLSVGMVR [S68V], the abundance fitness falls from 0.314 ± 0.15 to -0.526 ± 0.15.

CKVCGDVASGFHYGVHACEGCKGFFRRSIQQNIQYKKCLKNENCSIMRMNRNRCQQCRFKKCLSVGMIR [S68I] and CKVCGDVASGFHYGVHACEGCKGFFRRSIQQNIQYKKCLKNENCSIMRMNRNRCQQCRFKKCLSVGMNR [S68N] are within error of each other in abundance fitness: -0.111 ± 0.27 for the first, 0.186 ± 0.2 for the second.

Compared with CKVCGDVASGFHYGVHACEGCKGFFRRSIQQNIQYKKCLKNENCSIMRMNRNRCQQCRFKKCLSVGMTR [S68T], CKVCGDVASGFHYGVHACEGCKGFFRRSIQQNIQYKKCLKNENCSIMRMNRNRCQQCRFKKCLSVGMHR [S68H] is lower in abundance fitness: -0.018 ± 0.13 for the first, -0.347 ± 0.15 for the second.

Going from CKVCGDVASGFHYGVHACEGCKGFFRRSIQQNIQYKKCLKNENCSIMRMNRNRCQQCRFKKCLSVGMFR [S68F] to CKVCGDVASGFHYGVHACEGCKGFFRRSIQQNIQYKKCLKNENCSIMRMNRNRCQQCRFKKCLSVGMGR [S68G], the abundance fitness rises from -0.561 ± 0.14 to -0.125 ± 0.088.

Going from CKVCGDVASGFHYGVHACEGCKGFFRRSIQQNIQYKKCLKNENCSIMRMNRNRCQQCRFKKCLSVGMPR [S68P] to CKVCGDVASGFHYGVHACEGCKGFFRRSIQQNIQYKKCLKNENCSIMRMNRNRCQQCRFKKCLSVGMMR [S68M], the abundance fitness rises from -0.768 ± 0.19 to -0.023 ± 0.2.

Compared with CKVCGDVASGFHYGVHACEGCKGFFRRSIQQNIQYKKCLKNENCSIMRMNRNRCQQCRFKKCLSVGMKR [S68K], CKVCGDVASGFHYGVHACEGCKGFFRRSIQQNIQYKKCLKNENCSIMRMNRNRCQQCRFKKCLSVGMLR [S68L] is lower in abundance fitness: -0.01 ± 0.32 for the first, -0.584 ± 0.18 for the second.

CKVCGDVASGFHYGVHACEGCKGFFRRSIQQNIQYKKCLKNENCSIMRMNRNRCQQCRFKKCLSVGMER [S68E] and CKVCGDVASGFHYGVHACEGCKGFFRRSIQQNIQYKKCLKNENCSIMRMNRNRCQQCRFKKCLSVGMRR [S68R] are within error of each other in abundance fitness: -0.087 ± 0.3 for the first, -0.354 ± 0.12 for the second.

Going from CKVCGDVASGFHYGVHACEGCKGFFRRSIQQNIQYKKCLKNENCSIMRMNRNRCQQCRFKKCLSVGMSD [R69D] to CKVCGDVASGFHYGVHACEGCKGFFRRSIQQNIQYKKCLKNENCSIMRMNRNRCQQCRFKKCLSVGMST [R69T], the abundance fitness rises from -0.404 ± 0.26 to 0.451 ± 0.13.

CKVCGDVASGFHYGVHACEGCKGFFRRSIQQNIQYKKCLKNENCSIMRMNRNRCQQCRFKKCLSVGMSS [R69S] and CKVCGDVASGFHYGVHACEGCKGFFRRSIQQNIQYKKCLKNENCSIMRMNRNRCQQCRFKKCLSVGMSW [R69W] are within error of each other in abundance fitness: 0.176 ± 0.12 for the first, 0.288 ± 0.17 for the second.

CKVCGDVASGFHYGVHACEGCKGFFRRSIQQNIQYKKCLKNENCSIMRMNRNRCQQCRFKKCLSVGMSE [R69E] and CKVCGDVASGFHYGVHACEGCKGFFRRSIQQNIQYKKCLKNENCSIMRMNRNRCQQCRFKKCLSVGMSF [R69F] are within error of each other in abundance fitness: 0.008 ± 0.16 for the first, 0.483 ± 0.36 for the second.

Going from CKVCGDVASGFHYGVHACEGCKGFFRRSIQQNIQYKKCLKNENCSIMRMNRNRCQQCRFKKCLSVGMSQ [R69Q] to CKVCGDVASGFHYGVHACEGCKGFFRRSIQQNIQYKKCLKNENCSIMRMNRNRCQQCRFKKCLSVGMSV [R69V], the abundance fitness rises from 0.07 ± 0.13 to 0.327 ± 0.07.

Compared with CKVCGDVASGFHYGVHACEGCKGFFRRSIQQNIQYKKCLKNENCSIMRMNRNRCQQCRFKKCLSVGMSA [R69A], CKVCGDVASGFHYGVHACEGCKGFFRRSIQQNIQYKKCLKNENCSIMRMNRNRCQQCRFKKCLSVGMSY [R69Y] is lower in abundance fitness: 0.233 ± 0.088 for the first, -0.083 ± 0.2 for the second.

CKVCGDVASGFHYGVHACEGCKGFFRRSIQQNIQYKKCLKNENCSIMRMNRNRCQQCRFKKCLSVGMSM [R69M] and CKVCGDVASGFHYGVHACEGCKGFFRRSIQQNIQYKKCLKNENCSIMRMNRNRCQQCRFKKCLSVGMSC [R69C] are within error of each other in abundance fitness: 0.318 ± 0.12 for the first, -0.013 ± 0.34 for the second.

CKVCGDVASGFHYGVHACEGCKGFFRRSIQQNIQYKKCLKNENCSIMRMNRNRCQQCRFKKCLSVGMSP [R69P] and CKVCGDVASGFHYGVHACEGCKGFFRRSIQQNIQYKKCLKNENCSIMRMNRNRCQQCRFKKCLSVGMSG [R69G] are within error of each other in abundance fitness: 0.28 ± 0.12 for the first, 0.112 ± 0.079 for the second.

In the case of CKVCGDVASGFHYGVHACEGCKGFFRRSIQQNIQYKKCLKNENCSIMRMNRNRCQQCRFKKCLSVGMSL [R69L], the abundance fitness is reported as 0.143 ± 0.087.
